Assay results published in publication PMC9330073, “Cargo Recognition Mechanisms of Yeast Myo2 Revealed by AlphaFold2-Powered Protein Complex Prediction” (Biomolecules, 2022).
Changes are numbered by the printed parent chain. Where two headings read alike, the source gives them in different places.

What was measured:
[1] = biological target: Kar9^C (unstructured C-terminal region of Kar9) (Saccharomyces cerevisiae (strain S288c)) (UniProt P32526); test: ITC; 500 μM Myo2-GTD in the syringe titrated into 50 μM Kar9-MIS or Pea2-MIS in the cell, 25 °C; one-site binding model
[2] = biological target: GST-Pea2-CC1 (GST-tagged Pea2-CC1; dimer) (Saccharomyces cerevisiae (strain S288c)) (UniProt P40091); test: as above
[3] = biological target: Kar9^N (N-terminal folded domain of Kar9) (Saccharomyces cerevisiae (strain S288c)) (UniProt P32526); test: as above
[4] = biological target: GST-Pea2-CC1 (GST-tagged Pea2-CC1; dimer) (Saccharomyces cerevisiae (strain S288c)) (UniProt P40091); test: SEC-MALS; 100 μL of 100 μM protein on Superdex 200 Increase 10/300 GL; 50 mM Tris-HCl pH 7.5, 100 mM NaCl, 1 mM EDTA, 1 mM DTT
Myo2-GTD D1297N = biological target: T1, Myo2-GTD D1297N (Saccharomyces cerevisiae); test: ITC
T1 chain: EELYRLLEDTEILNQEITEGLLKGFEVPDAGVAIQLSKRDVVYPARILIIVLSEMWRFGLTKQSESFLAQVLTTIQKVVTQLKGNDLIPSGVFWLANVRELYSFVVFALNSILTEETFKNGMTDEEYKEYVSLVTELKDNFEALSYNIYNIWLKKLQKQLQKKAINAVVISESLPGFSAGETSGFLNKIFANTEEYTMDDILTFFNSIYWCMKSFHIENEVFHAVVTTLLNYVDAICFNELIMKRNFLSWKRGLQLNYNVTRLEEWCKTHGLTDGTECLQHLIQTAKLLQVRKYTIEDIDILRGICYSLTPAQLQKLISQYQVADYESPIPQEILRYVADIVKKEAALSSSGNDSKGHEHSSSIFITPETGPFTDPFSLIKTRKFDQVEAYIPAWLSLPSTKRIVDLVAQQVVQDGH

Myo2-GTD Y1303A = biological target: T2, Myo2-GTD Y1303A (Saccharomyces cerevisiae); test: ITC
T2 chain: T1 chain with N140D, Y146A

[5] = biological target: T3, Myo2-GTD (globular tail domain of Myo2) (Saccharomyces cerevisiae (strain S288c), UniProt P19524 1152-1574); test: ITC
T3 chain: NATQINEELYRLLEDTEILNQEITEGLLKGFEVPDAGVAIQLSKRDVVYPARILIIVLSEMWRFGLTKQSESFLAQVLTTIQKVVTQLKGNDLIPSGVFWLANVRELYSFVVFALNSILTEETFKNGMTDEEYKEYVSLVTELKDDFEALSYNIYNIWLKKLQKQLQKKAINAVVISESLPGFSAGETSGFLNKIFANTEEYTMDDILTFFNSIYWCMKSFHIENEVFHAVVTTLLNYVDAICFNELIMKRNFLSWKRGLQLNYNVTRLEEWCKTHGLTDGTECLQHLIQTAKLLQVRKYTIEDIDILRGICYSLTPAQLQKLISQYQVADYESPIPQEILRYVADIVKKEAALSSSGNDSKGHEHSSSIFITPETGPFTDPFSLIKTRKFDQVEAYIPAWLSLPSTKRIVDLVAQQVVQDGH

[6] = biological target: T4, Smy1-MIS::Myo2-GTD fusion protein (Saccharomyces cerevisiae | …); test: ITC
T4 chain: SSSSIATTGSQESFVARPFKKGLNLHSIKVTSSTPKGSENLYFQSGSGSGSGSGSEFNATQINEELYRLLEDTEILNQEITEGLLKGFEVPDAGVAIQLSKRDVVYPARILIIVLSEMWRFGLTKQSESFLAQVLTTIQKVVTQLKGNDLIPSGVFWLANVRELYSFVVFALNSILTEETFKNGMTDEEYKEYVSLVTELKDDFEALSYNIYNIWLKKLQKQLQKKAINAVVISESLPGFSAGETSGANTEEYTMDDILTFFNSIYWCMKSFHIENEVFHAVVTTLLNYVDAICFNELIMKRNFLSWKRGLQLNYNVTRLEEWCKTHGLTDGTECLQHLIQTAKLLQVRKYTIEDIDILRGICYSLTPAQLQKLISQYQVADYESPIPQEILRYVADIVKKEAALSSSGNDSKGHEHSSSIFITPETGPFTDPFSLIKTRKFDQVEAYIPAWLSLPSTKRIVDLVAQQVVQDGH

[7] = biological target: T3, Myo2-GTD (globular tail domain of Myo2); test: ITC
Myo2-GTD W1407A = biological target: T5, Myo2-GTD W1407A (Saccharomyces cerevisiae (strain S288c)); test: ITC
T5 chain: T1 chain with N140D, W250A

Myo2-GTD L1331S = biological target: T6, Myo2-GTD L1331S (Saccharomyces cerevisiae (strain S288c)); test: ITC
T6 chain: T1 chain with N140D, L174S

## Myo2-GTD (globular tail domain of Myo2) (from UniProt P19524 1152-1574) (domain or fragment)
[1]
  Kd: 3 µM
[2]
  fold enhancement of the binding affinity over the Pea2-CC1 monomer: 5 fold
  stoichiometry N: 0.5
[3]
  Kd: 16 µM

## GST-Pea2-CC1 (GST-tagged Pea2-CC1; dimer) (from UniProt P40091 235-327) (domain or fragment)
[4]
  stoichiometry N: 2

## SSSSIATTGSQESFVARPFKKGLNLHSIKVTSSTPK (domain or fragment) [Smy1-MIS (Myo2-interacting sequence of Smy1)]
Myo2-GTD D1297N
  Kd: 14 µM
Myo2-GTD Y1303A
  Kd: 14 µM
[5]
  Kd: 21 µM

B1: Mmr1 (peptide)
chain: GNSARIPCPKTRLARVSVLDLKKIEEQPDSSSG
modifications: Limits taken from 6IXQ: the fusion as Smy1-MIS, TEV site, SG linker, Myo2-GTD, assumed uncleaved as a single chain; the linker is part of the fusion
[6]
  Kd: 6.2 µM

B2: Vac17-MIS (Myo2-interacting sequence of Vac17) (domain or fragment)
chain: PNEAPNDSPQSQSTRSSLGSFQPRPLKIIERQRLCMVTPSKPPKKS
modifications: Limits taken from 6IXQ: the fusion as Smy1-MIS, TEV site, SG linker, Myo2-GTD, assumed uncleaved as a single chain; the linker is part of the fusion
[6]
  Kd: 0.32 µM

B3: GST-Pea2-CC1 (GST-tagged Pea2-CC1; dimer) (domain or fragment)
chain: AIQEEDSSKKLEELETAFSDLQLAHNFLTKQFENDRAEYVQDIEKLTRTNRELQDKLLNNHSNLSKTEKKLHELEQENKELEKANNKLNSSRH
modifications: N-terminal GST (pGEX-4T-1) left out; GST drives the dimerization Limits taken from 6IXQ: the fusion as Smy1-MIS, TEV site, SG linker, Myo2-GTD, assumed uncleaved as a single chain; the linker is part of the fusion
[6]
  Kd: 12 µM

B4: Kar9^N (N-terminal folded domain of Kar9) (domain or fragment)
chain: MDNDGPRSMTIGDDFQENFCERLERIHNTLHSINDCNSLNESTTSISETLLVQFYDDLENVASVIPDLVNKKRLGKDDILLFMDWLLLKKYMLYQFISDVHNIEEGFAHLLDLLEDEFSKDDQDSDKYNRFSPMFDVIEESTQIKTQLEPWLTNLKELLDTSLEFNEISKDHMDTLHKIINSNISYCLEIQEERFASPIRHTPSFTLEQLVKLLGTHTETTEPKVPKFSPAEDILSRKFLNLKKNIPPIEKSLTDILPQRIVQFGHRNITNITTLQTILQKKYELIMKDYRFMNSEFRELKVELIDKRWNILFINLNHELLYILDEIERLQSKLLTTKYTKDITIRLERQLERKSKTVSKTFNIIYRALEFSLLDAGVASKTNELAQRWLNIKPTADKILIKSSASNKIATSKKKIPKPKSLGFGRPNSVIGTITQDFQERVAINEGDSNKTPENSTTVALKGKKLGKALLQKMNIKPATSPNSSNAINPFFDPESPNKGKLILSSVPPLPYDETDETTLRVSRGENEKSPDSFITSRHENKVQITETPLMAKNKSVLDIEKDKWNHYRSLPSRIPIYKDKVVKVTVENTPIAKVFQTPPTKITTPNSQVWVPSTRRRTRLRPPTPLSQLLSPREGRLDKTPTY
Myo2-GTD D1297N
  Kd: 16 µM
Myo2-GTD Y1303A
  Kd: 16 µM

B5: Kar9^C-MIS (Myo2-interacting sequence in the C-terminal region of Kar9) (domain or fragment)
chain: ALKGKKLGKALLQKMNIKPATSPNSSNAINPFFDPESPNKGKLILSSVPPLPY
[7]
  Kd: 7.7 µM
Myo2-GTD W1407A
  Kd: 7.5 µM
Myo2-GTD L1331S
  Kd: 8.9 µM
Myo2-GTD D1297N
  Kd: 7.7 µM
Myo2-GTD Y1303A
  Kd: 7.1 µM

B6: Kar9^N (N-terminal folded domain of Kar9) (domain or fragment)
chain: B4 chain
modifications: Limits taken from 6IXQ: the fusion as Smy1-MIS, TEV site, SG linker, Myo2-GTD, assumed uncleaved as a single chain; the linker is part of the fusion
[6]
  Kd: 17 µM

## GNSARIPCPKTRLARVSVLDLKKIEEQPDSSSG
Myo2-GTD D1297N
  Kd: 21 µM
[5]
  Kd: 6.8 µM

B7: Kar9 413-530 (protein)
chain: KKKIPKPKSLGFGRPNSVIGTITQDFQERVAINEGDSNKTPENSTTVALKGKKLGKALLQKMNIKPATSPNSSNAINPFFDPESPNKGKLILSSVPPLPYDETDETTLRVSRGENEKS
[7]
  Kd: 6.9 µM

## NHGFHLDILKGRK [Inp2]
[5]
  Kd: 32 µM
